Experimental data as given in patent publication US10266565B2, “Peptide mimetic ligands of polo-like kinase 1 polo box domain and methods of use” (The United States of America, as represented by the …, priority 2011, dated 2019).
“Also recorded” adds a separate entry of the source. Where a SMILES comes first, the peptide text is derived from it. Where no end group is shown, it is not given here. [ ]: non-standard residue; d: D form. The star is where a group is joined. His(π-(CH2)8Ph) = N[C@@H](Cc1cncn1CCCCCCCCc1ccccc1)C(=O)O; Abu(3R-Me,4-PO3H2) = C[C@@H](CP(=O)(O)O)[C@H](N)C(=O)O; CH3O(CH2CH2O)7C2H4CO = COCCOCCOCCOCCOCCOCCOCCOCCC(=O)*; pT = C[C@@H](OP(=O)(O)O)[C@H](N)C(=O)O; PEG = not defined here

Columns and labels:
[1] = biological target: T1, Plk2 (Mus musculus, UniProt P53351, K108M); assay: Peptide pull-down assay with bead-immobilized peptides, Plk2; format: binding
T1 construct: expressed in transfected cells
T1 sequence (P53351 whole entry K108M): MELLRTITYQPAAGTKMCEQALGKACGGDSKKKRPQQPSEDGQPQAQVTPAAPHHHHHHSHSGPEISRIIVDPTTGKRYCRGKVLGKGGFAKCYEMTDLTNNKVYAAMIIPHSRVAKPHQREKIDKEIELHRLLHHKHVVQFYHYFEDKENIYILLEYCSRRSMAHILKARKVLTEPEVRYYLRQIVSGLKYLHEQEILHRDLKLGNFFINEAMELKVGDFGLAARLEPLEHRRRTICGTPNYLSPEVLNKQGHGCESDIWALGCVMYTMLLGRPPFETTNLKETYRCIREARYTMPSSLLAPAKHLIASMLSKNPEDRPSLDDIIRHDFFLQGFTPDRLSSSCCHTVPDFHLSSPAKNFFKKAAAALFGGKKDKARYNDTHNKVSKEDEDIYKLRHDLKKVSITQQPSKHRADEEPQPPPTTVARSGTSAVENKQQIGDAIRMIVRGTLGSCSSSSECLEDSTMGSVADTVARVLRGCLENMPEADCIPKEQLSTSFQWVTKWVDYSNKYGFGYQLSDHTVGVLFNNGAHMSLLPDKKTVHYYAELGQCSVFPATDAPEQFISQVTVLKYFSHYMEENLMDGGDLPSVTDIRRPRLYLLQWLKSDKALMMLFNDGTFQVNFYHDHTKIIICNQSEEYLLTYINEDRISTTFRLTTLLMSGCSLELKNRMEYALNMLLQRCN
Experimental: After incubating the cell lysates prepared in TBSN buffer {20 mM Tris-Cl (pH8.0), 150 mM NaCl, 0.5% Np-40, 5 mM EGTA, 1.5 mM EDTA, 20 mM p-nitrophenylphosphate and protease inhibitor cocktail (Roche, Nutley, N.J.)} with the bead-immobilized ligands for 2 h at 4° C., the ligand-associating proteins were precipitated, washed, boiled in sodium dodecyl sulfate (SDS) sample buffer, separated by 8% SDS-polyacrylamide gel electrophoresis (PAGE), and then subjected to immunoblotting analysis with anti-Flag antibody and the enhanced chemilunimescence (ECL) detection system (Pierce). The same membrane was also stained with Coomassies (CBB). Signal intensities were quantified using Image J program.
To investigate the binding specificity of p-T78 peptides to various Plks, Flag-Plk1 (K82M), Flag-Plk2(K108M)3 or Flag-Plk3(K52R) (a gift of Wei Dai, New York University School of Medicine, NY) construct was first transfected into HeLa cells. Cellular lysates were prepared as above, mixed, and then incubated in TBSN buffer with the immobilized peptides indicated.

[2] = system: HeLa cells; assay: Direct treatment of cultured HeLa cells (mitotic arrest, apoptotic cell death, Plk1 localization); format: cell-based; conditions: 200 μM
[3] = biological target: T2, Plk1 (Homo sapiens, UniProt P53350); assay: Peptide pull-down assay with bead-immobilized peptides, Plk1; format: binding; conditions: for Plk1 binding / precipitation in pull-down, in words: mitotic cell lysates
T2 construct: we used total lysates prepared from mitotic HeLa cells; endogenous in cells; host or cells: mitotic (nocodazole-arrested) HeLa cells
T2 sequence (P53350 2-603): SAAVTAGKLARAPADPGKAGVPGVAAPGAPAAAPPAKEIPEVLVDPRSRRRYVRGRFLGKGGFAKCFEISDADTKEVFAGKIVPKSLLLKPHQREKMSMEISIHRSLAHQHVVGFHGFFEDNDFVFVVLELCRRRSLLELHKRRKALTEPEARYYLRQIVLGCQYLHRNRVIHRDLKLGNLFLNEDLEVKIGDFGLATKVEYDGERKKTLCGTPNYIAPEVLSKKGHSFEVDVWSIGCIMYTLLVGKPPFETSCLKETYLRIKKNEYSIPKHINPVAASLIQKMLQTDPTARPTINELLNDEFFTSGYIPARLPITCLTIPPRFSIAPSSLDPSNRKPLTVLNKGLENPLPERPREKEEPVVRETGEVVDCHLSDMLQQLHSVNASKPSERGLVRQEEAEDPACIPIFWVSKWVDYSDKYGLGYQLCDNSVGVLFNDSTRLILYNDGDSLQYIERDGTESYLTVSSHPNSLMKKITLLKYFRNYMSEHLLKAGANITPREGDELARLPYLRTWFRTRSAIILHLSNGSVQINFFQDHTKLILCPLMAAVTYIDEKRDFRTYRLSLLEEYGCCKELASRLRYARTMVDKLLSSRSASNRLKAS
Experimental: For Plk1 pull-down assays with immobilized peptides, we used total lysates prepared from mitotic HeLa cells. […] Cells treated with 200 ng/ml of nocodazole for 16 h were lysed in TBSN buffer {20 mM Tris-Cl (pH8.0), 150 mM NaCl, 0.5% NP-40, 5 mM EGTA, 1.5 mM EDTA, 0.5 mM Na3VO4, 20 mM p-nitrophenyl phosphate, and protease inhibitor cocktail (Roche, Nutley, N.J.)}, and then clarified by centrifugation at 15,000×g for 20 min at 4° C. The resulting lysates were incubated with bead-immobilized peptides (40 μM per binding) for 2 h, precipitated, washed, and then boiled in sodium dodecyl sulfate (SDS) sample buffer to elute the associated proteins. Samples were separated by 10% SDS-polyacrylamide gel electrophoresis (PAGE), and then either stained with silver or transferred to PVDF membrane for immunoblotting analysis with anti-Plk1 antibody using the enhanced chemiluminescence (ECL) detection system (Pierce). […]

[4] = biological target: Plk1 PBD (Homo sapiens, UniProt P53350); assay: Isothermal titration calorimetry with recombinant Plk1 PBD; format: binding
Sequence of Plk1 PBD (P53350 326-603): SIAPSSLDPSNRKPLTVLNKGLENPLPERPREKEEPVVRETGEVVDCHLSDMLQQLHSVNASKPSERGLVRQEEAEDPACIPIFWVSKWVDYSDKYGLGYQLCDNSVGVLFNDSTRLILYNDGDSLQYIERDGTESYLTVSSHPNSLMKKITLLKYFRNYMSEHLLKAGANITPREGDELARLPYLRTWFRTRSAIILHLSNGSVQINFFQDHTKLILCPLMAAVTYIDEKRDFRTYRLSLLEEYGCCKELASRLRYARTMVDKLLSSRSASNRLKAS

[5] = biological target: Plk1 PBD-p-Cdc25C interaction (Homo sapiens, UniProt P53350); assay: Competition of the PBD-p-Cdc25C interaction in mitotic HeLa lysates; format: binding; conditions: GST-PBD
Sequence of Plk1 PBD-p-Cdc25C interaction (P53350 326-603 limits assumed): as the sequence (P53350 326-603) above
Experimental: For p-Cdc25C pull-down assays, either bead-bound GST-PBD or the corresponding GST-PBD(H538A K540M) mutant was incubated with mitotic HeLa lysates in TBSN buffer supplemented with 2 mM DTT. To test the ability of the indicated peptides to compete the PBD-p-Cdc25C interaction, lysates were pre-incubated with GST-PBD for 1.5 h prior to the addition of the indicated peptides. Lysates were then incubated for additional 1.5 h, washed in the binding buffer, and then analyzed. For competition of the interaction between p-Cdc25C and endogenous Plk1, mitotic lysates were prepared in TBSN and incubated with the indicated peptides for 1 h before subjecting to immunoprecipitation with anti-Plk1 antibody.

[6] = biological target: recombinant Plk1 PBD (full length PBD, calorimetry) (UniProt P53350); assay: ITC, 25 C; 5-mer LHSpTA (SEQ ID NO: 3)
Sequence of recombinant Plk1 PBD (full length PBD, calorimetry) (P53350 326-603 limits assumed): as the sequence (P53350 326-603) above

[7] = biological target: T3, Plk2 PBD (Homo sapiens, UniProt Q9NYY3); assay: Isothermal titration calorimetry with recombinant Plk2 PBD; conditions: titrated into Plk2 PBD
T3 sequence (Q9NYY3 373-685): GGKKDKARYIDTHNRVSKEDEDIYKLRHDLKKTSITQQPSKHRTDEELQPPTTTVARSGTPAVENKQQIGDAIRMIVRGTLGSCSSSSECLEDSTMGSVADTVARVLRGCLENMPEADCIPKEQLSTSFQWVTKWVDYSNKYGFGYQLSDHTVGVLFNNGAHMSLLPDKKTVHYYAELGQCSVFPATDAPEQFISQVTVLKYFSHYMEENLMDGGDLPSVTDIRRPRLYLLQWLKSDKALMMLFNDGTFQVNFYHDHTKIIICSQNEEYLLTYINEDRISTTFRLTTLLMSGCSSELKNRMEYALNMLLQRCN

[8] = system: HeLa cells; assay: Microinjection of peptides into HeLa cells; format: cell-based; conditions: for Plk1 localization at centrosomes and kinetochores: microinjection; for mitotic arrest / cell cycle effect, in words: peptide introduced into the cells
Experimental: HeLa cells were cultured as subconfluent monolayers under the conditions recommended by American Type Culture Collection (Manassas, Va.). […] No mitotic exit was observed during the period of 10 min BMI-1026 treatment. For microinjection experiments with the Pmab-containing mimetic peptides, cells were arrested for 16 h with 2.5 mM thymidine (Sigma) and released into fresh medium. Two hours after release from the S phase block, the indicated peptides (2.5 mM stock in PBS) were microinjected into the cells using Eppendorf® Transjector 5246 (Eppendorf®, Westbury, N.Y.) at the 150 hPa pressure level and the 0.5 second injection time. All the cells in a single grid were injected and then further incubated to monitor cell cycle progression. For microinjection experiments with the F2Pmab-containing mimetic peptides, cells were arrested with 2.5 mM thymidine for 16 h twice with a 9 h release interval, and then released into fresh medium. Seven hours after release from the G1/S phase block, the indicated peptides (4 mM stock in PBS) were microinjected similarly as above. Where indicated, peptides containing the final concentration of 30 ng/μl of pEGFP-C1 vector (Clontech®, Mountain View, Calif.) were used to visualize the injected cells.
Four hours after microinjection, cells were fixed and subjected to immunostaining analyses as described below.
Similar methods were used for the experiments shown in FIG. 16 using the peptides indicated. HeLa cells were arrested at the G1/S boundary by double thymidine treatment and released into fresh medium. […] Co-injected EGFP plasmid provided a convenient marker to identify the microinjected cells.
Indirect immunostaining was carried out as described previously (5) using anti-Plk1 antibody (Santa Cruz Biotechnologies, Santa Cruz, Calif.) and anti-CREST antiserum (Cortex Biochem, San Leandro, Calif.). All the appropriate secondary antibodies were purchased from Jackson ImmunoResearch Laboratories, Inc. (West Grove, Pa.). Biotinylated F2Pmab-positive cells were detected by co-staining with FITC-conjugated Streptavidin (Invitrogen®, Carlsbad, Calif.). Chromosomes were visualized with 4′,6-diamidino-2-phenylindole (DAPI) (Sigma). Digital images were collected with a Zeiss LSM510 confocal microscope. For the quantification of the fluorescence signal intensities, images of unsaturated fluorescence signals were acquired with the same laser intensity at 512×512 pixels and 12-bit resolution. Fluorescence intensities for localized signals were determined after subtracting the background signal intensities using Zeiss AIM confocal software.

[9] = biological target: Plk1 (endogenous, HeLa cells) (UniProt P53350); assay: pull-down with bead-immobilized peptide, mitotic HeLa lysate
Sequence of Plk1 (endogenous, HeLa cells) (P53350 2-603 limits assumed): as the sequence (P53350 2-603) above

[10] = biological target: Plk1 PBD (construct and assay format not stated at these places) (UniProt P53350); assay: assay not given
Sequence of Plk1 PBD (construct and assay format not stated at these places) (P53350 326-603 limits assumed): as the sequence (P53350 326-603) above

[11] = biological target: T4, Flag-Plk3 (K52R) (UniProt Q9H4B4 40-646, K52R); assay: pull-down with bead-immobilized peptide, mixed Flag-Plk1/2/3 lysates (293T)
T4 construct: In lysates of transfected cells
T4 sequence (Q9H4B4 40-646 K91R): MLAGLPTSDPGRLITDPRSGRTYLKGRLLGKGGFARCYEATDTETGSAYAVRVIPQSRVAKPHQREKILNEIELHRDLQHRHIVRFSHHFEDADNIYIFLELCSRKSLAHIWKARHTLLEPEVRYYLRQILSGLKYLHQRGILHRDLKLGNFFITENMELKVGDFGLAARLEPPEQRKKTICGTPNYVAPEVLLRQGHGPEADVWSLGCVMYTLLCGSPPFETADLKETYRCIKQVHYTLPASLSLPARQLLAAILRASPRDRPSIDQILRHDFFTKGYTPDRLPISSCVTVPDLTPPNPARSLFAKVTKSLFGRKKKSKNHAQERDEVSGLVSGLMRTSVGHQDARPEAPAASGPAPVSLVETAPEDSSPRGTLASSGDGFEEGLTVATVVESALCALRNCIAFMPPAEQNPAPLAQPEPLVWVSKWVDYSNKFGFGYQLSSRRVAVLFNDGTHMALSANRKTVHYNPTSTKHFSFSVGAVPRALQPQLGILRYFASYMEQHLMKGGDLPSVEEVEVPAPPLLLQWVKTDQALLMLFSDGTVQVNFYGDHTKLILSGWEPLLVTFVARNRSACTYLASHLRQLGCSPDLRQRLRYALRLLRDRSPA

Molecule: CSCC[C@H](N)C(=O)N[C@@H](CCC(N)=O)C(=O)N[C@@H](CO)C(=O)N[C@H](C(=O)N1CCC[C@H]1C(=O)N[C@@H](CC(C)C)C(N)=O)[C@@H](C)OP(=O)(O)O [MQSpTPL, reference compound]
- Plk2 precipitation as efficiency of Plk1 precipitation ([1]; lysates with similar levels of Plk1, Plk2, Plk3): ~27%

Molecule: COCCOCCOCCOCCOCCOCCOCCOCCC(=O)N1CCC[C@H]1C(=O)N[C@@H](CC(C)C)C(=O)N[C@@H](Cc1cnc[nH]1)C(=O)N[C@@H](C)C(=O)N[C@H](C(N)=O)[C@@H](C)CP(=O)(O)O [PEG-1* (S/A)] ({CH3O(CH2CH2O)7C2H4CO}-PLHA[Abu(3R-Me,4-PO3H2)]-NH2)
- Plk1 delocalization and misaligned chromosomes [2]: not
- mitotic arrest / apoptotic cell death / cellular response [2]: not

Molecule: COCCOCCOCCOCCOCCOCCOCCOCCC(=O)N1CCC[C@H]1C(=O)N[C@@H](CC(C)C)C(=O)N[C@@H](Cc1cnc[nH]1)C(=O)N[C@@H](CO)C(=O)N[C@H](C(N)=O)[C@@H](C)CP(=O)(O)O [PEG-1*]
- Plk1 delocalization and misaligned chromosomes [2]: only mild Plk1 delocalization with a moderate level of misaligned chromosomes
- mitotic arrest / apoptotic cell death / cellular response [2]: weak but significant level of mitotic arrest

Molecule: COCCOCCOCCOCCOCCOCCOCCOCCC(=O)N1CCC[C@H]1C(=O)N[C@@H](CC(C)C)C(=O)N[C@@H](Cc1cncn1CCCCCCCCc1ccccc1)C(=O)N[C@@H](C)C(=O)N[C@H](C(N)=O)[C@@H](C)CP(=O)(O)O [PEG-4j* (S/A)] ({CH3O(CH2CH2O)7C2H4CO}-PL[His(π-(CH2)8Ph)]A[Abu(3R-Me,4-PO3H2)]-NH2)
- Plk1 delocalization and misaligned chromosomes [2]: not
- mitotic arrest / apoptotic cell death / cellular response [2]: did not

Molecule: HSpT: "HSpT lacking both the Pro and Leu residues" (His-Ser-[pT])
- Plk1 binding / precipitation in pull-down, in words [3]: did not exhibit any significant level of binding

Molecule: HSpTA: 4-mer p-T78 peptide "HSpTA (SEQ ID NO: 15)" (HS[pT]A)
- Plk1 binding / precipitation in pull-down, in words [3]: bound to Plk1 better than SpTAI
- binding affinity by calorimetry, in words [4]: much lower affinities
- disruption of the pre-formed PBD-p-Cdc25C complex [5]: disrupted the complex weakly

Molecule: HSpTAI: "HSpTAI, lacking both Pro and Leu but instead bearing two additional C-terminal residues following the SpT motif" (HS[pT]AI)
- Plk1 binding / precipitation in pull-down, in words [3]: bound to Plk1 only weakly

Molecule: LHSpT: "LHSpT (SEQ ID NO: 14) lacking the N-terminal Pro" (LHS[pT])
- diminished binding affinity to Plk1 relative to PLHSpT [3]: ~7 fold
- Plk1 binding / precipitation in pull-down, in words [3]: bound to Plk1 better than SpTAI
- binding affinity by calorimetry, in words [4]: much lower affinities
- weaker binding than PLHSpT ([4]; assay not given): ~50 fold
- disruption of the pre-formed PBD-p-Cdc25C complex [5]: much less effective than PLHSpT; also recorded: disrupted the complex weakly

Molecule: LHSpTA (peptide)
- Kd [6]: 450 nM

Molecule: LHSpTAI: "the analogous p-T78 peptide (LHSpTAI (SEQ ID NO: 17))" (LHS[pT]AI)
- Plk1 binding / precipitation in pull-down, in words [3]: equivalent to that of the former
- binding affinity by calorimetry, in words [4]: slightly higher affinities than the 5-mer peptides

Molecule: MLHSpT: "a Pro-4 to Met-4 mutant, MLHSpT (SEQ ID NO: 18)" (MLHS[pT])
- Plk1 binding / precipitation in pull-down, in words [3]: greatly diminished level of Plk1 PBD binding

Molecule: PLHA-Pmab: "a mutation of the invariably required Ser-1 residue to Ala {PLHA-Pmab (SEQ ID NO: 20); in short, Pmab(S77A)}" (PLHA[Abu(3R-Me,4-PO3H2)])
- Plk1 binding / precipitation in pull-down, in words [3]: abolished the Plk1 binding

Molecule: PLQSpT: "mutation of the His-2 to Gln"; "the PLQSpT mutant" of parent PLHSpT (PLQS[pT])
- increase of the level of Plk2 binding ([1]; His-2 to Gln mutant versus PLHSpT): 24 fold
- initial heats of interaction [7]: ~-1.1 kcal/mol

Molecule: Pmab(S77A): the S77A mutants of the Pmab- and the F2Pmab-containing peptides (24 and 26, respectively) (PLHA[Abu(3R-Me,4-PO3H2)])
- Plk1 localization at centrosomes and kinetochores [8]: not
- mitotic arrest / cell cycle effect, in words [8]: not

Molecule: non-phospho T78 peptide: "the respective non-phospho PLHST (SEQ ID NO: 11) control peptide"
- Plk1 localization at centrosomes and kinetochores [8]: not
- mitotic arrest / cell cycle effect, in words [8]: proceeded through the cell cycle normally

Molecule: LHS[pT] [LHSpT]
- fold diminished binding relative to PLHSpT [9]: 7 fold
- fold weaker binding than PLHSpT [10]: 50 fold

Molecule: Ac-PPHS[pT] [PPHSpT]
- fold diminished binding affinity [10]: 20 fold

Molecule: Ac-PLH(Ph‑(CH2)8)S[pT] (also called peptide 4j; Compound 4j) [4j (Biological Example 1)]
- binding result [11]: no binding

B1: PEG-4j* (peptide)
peptide: {PEG}-PLH(Ph‑(CH2)8)S[Abu(3R-Me,4-PO3H2)]
modifications: reading uncertain
notes: T0009: Z = CH2, G = Ph-(CH2)8-, R1 = PEG; also called Cys-PEG-4j* (bead-immobilized form)
- binding result [11]: no binding
